Laboratory results as given in PMC11417369, “DNA sequence and chromatin differentiate sequence-specific transcription factor binding in the human malaria parasite Plasmodium falciparum”.

T1: PF3D7_0420300 D1 (Plasmodium falciparum, UniProt Q8I1N6 1956-2015)
T1 sequence: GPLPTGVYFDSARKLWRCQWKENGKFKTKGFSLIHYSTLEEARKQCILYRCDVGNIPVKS

T2: AP2-LT D1 (Plasmodium falciparum, UniProt Q8IAM1 2520-2577)
T2 sequence: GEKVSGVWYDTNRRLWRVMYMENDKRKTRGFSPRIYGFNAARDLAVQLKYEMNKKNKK

T3: AP2-HC D1 (Plasmodium falciparum, UniProt Q8IKR9 1316-1374)
T3 sequence: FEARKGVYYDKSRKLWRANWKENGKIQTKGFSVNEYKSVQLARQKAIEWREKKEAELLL

T4: HDP1 homeodomain-like (Plasmodium falciparum, UniProt Q8IKH4 2990-3078)
T4 sequence: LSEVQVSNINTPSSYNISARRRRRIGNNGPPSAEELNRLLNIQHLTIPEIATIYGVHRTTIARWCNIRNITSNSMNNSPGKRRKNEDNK

T5: AP2-HC AP2 DBD (UniProt Q8IKR9 1320-1370)
T5 sequence: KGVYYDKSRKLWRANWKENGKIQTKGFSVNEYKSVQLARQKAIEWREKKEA

T6: AP2-I_D3 (AP2 domain 3) (UniProt Q8IJW6 775-824)
T6 chain: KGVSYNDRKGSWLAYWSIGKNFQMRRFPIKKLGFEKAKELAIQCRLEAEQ

B1: CACACA_site2859 (dsDNA)
DNA 1: AAAAAAAAAAAACACACACACACACCCACCCATACA
DNA 2: TGTATGGGTGGGTGTGTGTGTGTGTTTTTTTTTTTT
B2: CACACA_site7194 (dsDNA)
DNA 1: CAAACAAACGAACACACACACACACGCAAAAATGAT
DNA 2: ATCATTTTTGCGTGTGTGTGTGTGTTCGTTTGTTTG
B3: CACACA_site7633 (dsDNA)
DNA 1: TGGGAATAACGACACACACACACACGGATATAAATA
DNA 2: TATTTATATCCGTGTGTGTGTGTGTCGTTATTCCCA
B4: CACACA_site2306 (dsDNA)
DNA 1: CCCCCCCACAGACACACACACATACATACCACATAT
DNA 2: ATATGTGGTATGTATGTGTGTGTGTCTGTGGGGGGG
B5: CACACA_negctrl_site669 (dsDNA)
DNA 1: TAACTTTTATCCTTAATTCATATATAAGATTAAATC
DNA 2: GATTTAATCTTATATATGAATTAAGGATAAAAGTTA
B6: CACACA_site2428 (dsDNA)
DNA 1: TACACAAACAAACACACACACACACCCCCACAAAAA
DNA 2: TTTTTGTGGGGGTGTGTGTGTGTGTTTGTTTGTGTA
B7: CACACA_site7148 (dsDNA)
DNA 1: CATATTCCCCCCCACACACACACACGCATACATACC
DNA 2: GGTATGTATGCGTGTGTGTGTGTGGGGGGGAATATG
B8: CACACA_site8010 (dsDNA)
DNA 1: CACCCCCACAGACACACACACACACCGATATATATA
DNA 2: TATATATATCGGTGTGTGTGTGTGTCTGTGGGGGTG
B9: CACACA_negctrl_site694 (dsDNA)
DNA 1: TAATTTATTACCATGTAATTATTACGAATATAGGAT
DNA 2: ATCCTATATTCGTAATAATTACATGGTAATAAATTA
B10: CACACA_negctrl_site1788 (dsDNA)
DNA 1: TTTTATAAAATATAATATAATAATATATGTATAATA
DNA 2: TATTATACATATATTATTATATTATATTTTATAAAA
B11: CACACA_negctrl_site261 (dsDNA)
DNA 1: AACCTAAGCATTCTTCAAATTATATATGTAAAATGA
DNA 2: TCATTTTACATATATAATTTGAAGAATGCTTAGGTT
B12: CACACA_negctrl_site1739 (dsDNA)
DNA 1: ACGATTCAAAGGGAATATAAAATATTATTATCTATA
DNA 2: TATAGATAATAATATTTTATATTCCCTTTGAATCGT
B13: CACACA_negctrl_site1720 (dsDNA)
DNA 1: TTCTCAAAATTAAAATAACAGATTAACGAACTAACG
DNA 2: CGTTAGTTCGTTAATCTGTTATTTTAATTTTGAGAA
B14: CACACA_negctrl_site1292 (dsDNA)
DNA 1: TATATTTAGAATACAATCTTAAAGTTGAAATAAAAT
DNA 2: ATTTTATTTCAACTTTAAGATTGTATTCTAAATATA
B15: GTGCAC_site10341 (dsDNA)
DNA 1: GATAAAATGAGACCAGTGCATTATTAGTTGTACACC
DNA 2: GGTGTACAACTAATAATGCACTGGTCTCATTTTATC

The binders below were run against T1, PF3D7_0420300 D1 (assay: gcPBM; about 25 ug protein; PBS, 1% milk, 0.2 mg/ml BSA, salmon testes DNA, 0.03% Triton X-100). Conditions: tags: N-terminal GST (pGEX-4T-1), kept; label: surface-attached array probe.

Binder | binding signal
B1 | 10.7 ln median PBM intensity, better of two orientations
B2 | 10.4 ln median PBM intensity, better of two orientations
B3 | 10.4 ln median PBM intensity, better of two orientations
B4 | 11 ln median PBM intensity, better of two orientations
B5 | 8.85 ln median PBM intensity, better of two orientations
B6 | 10.5 ln median PBM intensity, better of two orientations
B7 | 11 ln median PBM intensity, better of two orientations
B8 | 10.5 ln median PBM intensity, better of two orientations

Each binder was assayed against T2, AP2-LT D1 in the same assay as above. Conditions: tags: N-terminal GST (pGEX-4T-1), kept; label: surface-attached array probe.

Binder | binding signal
B1 | 10.8 ln median PBM intensity, better of two orientations
B9 | 8.68 ln median PBM intensity, better of two orientations
B2 | 10.8 ln median PBM intensity, better of two orientations
B3 | 10.7 ln median PBM intensity, better of two orientations
B10 | 8.62 ln median PBM intensity, better of two orientations
B4 | 11 ln median PBM intensity, better of two orientations
B11 | 8.81 ln median PBM intensity, better of two orientations
B5 | 8.63 ln median PBM intensity, better of two orientations
B12 | 8.83 ln median PBM intensity, better of two orientations
B6 | 10.7 ln median PBM intensity, better of two orientations
B13 | 8.7 ln median PBM intensity, better of two orientations
B14 | 8.65 ln median PBM intensity, better of two orientations
B7 | 11 ln median PBM intensity, better of two orientations
B8 | 10.8 ln median PBM intensity, better of two orientations

The binders below were run against T3, AP2-HC D1 in the same assay as above. Conditions: tags: N-terminal GST (pGEX-4T-1), kept; label: surface-attached array probe.

Binder | binding signal
B1 | 11.8 ln median PBM intensity, better of two orientations
B9 | 9.4 ln median PBM intensity, better of two orientations
B2 | 11.8 ln median PBM intensity, better of two orientations
B3 | 11.9 ln median PBM intensity, better of two orientations
B10 | 9.41 ln median PBM intensity, better of two orientations
B4 | 11.9 ln median PBM intensity, better of two orientations
B11 | 9.41 ln median PBM intensity, better of two orientations
B5 | 9.41 ln median PBM intensity, better of two orientations
B12 | 9.48 ln median PBM intensity, better of two orientations
B6 | 12.1 ln median PBM intensity, better of two orientations
B13 | 9.4 ln median PBM intensity, better of two orientations
B14 | 9.26 ln median PBM intensity, better of two orientations
B8 | 11.8 ln median PBM intensity, better of two orientations

The binders below were run against T4, HDP1 homeodomain-like in the same assay as above. Conditions: tags: N-terminal GST (pGEX-4T-1), kept; chain copies: 2; label: surface-attached array probe.

Binder | binding signal
B15 | 9.81 ln median PBM intensity, better of two orientations

Each binder was assayed against T5, AP2-HC AP2 DBD (assay: EMSA; 1:1 stoichiometry; EMSA: 1x binding buffer (listed as 100 mM Tris-HCl pH 7.5, 500 mM KCl, 10 mM DTT), 5 mM MgCl2, 25 ng/ul poly dI-dC, 0.05% NP-40, protein in 25% glycerol, 20 min room temperature, 6% PAGE 0.5x TBE). Conditions: protein: recombinant; tags: N-terminal GST; label: biotin; blunt.

Binder | binding result
B7 | binds

Target: T6, AP2-I_D3 (AP2 domain 3)
Assay: EMSA; EMSA: 1x binding buffer (listed as 100 mM Tris-HCl pH 7.5, 500 mM KCl, 10 mM DTT), 5 mM MgCl2, 25 ng/ul poly dI-dC, 0.05% NP-40, protein in 25% glycerol, 20 min room temperature, 6% PAGE 0.5x TBE
Conditions: protein: recombinant; tags: N-terminal GST; label: biotin; blunt

Binder | binding result
B15 | binds
